Entries after “also recorded” stand apart in the source; their conditions may differ.

The test system of assay [1] is CD40-expressing target cells. Nature of the assay: Antibody dependent cellular cytotoxicity (ADCC). Type of assay: cell-based. The note with it: native antibodies. The source says:
(§1) 2, 2000, and PCT International Application No. PCT/US01/30857, also titled “Human Anti-CD40 Antibodies,” filed Oct. 2, 2001, both of which are herein incorporated by reference in their entirety.
Clones from 7 other hybridomas were identified as having antagonistic activity. Based on their relative antagonistic potency and ADCC activities, two hybridoma clones were selected for further evaluation (Table 1 below). They are named 131.2F8.5.9 (5.9) and 153.8E2.D10.D6.12.12 (12.12).

For assay [2], the system named is primary cancer cells from NHL patients. Nature of the assay: ADCC on primary cancer cells. Type of assay: cell-based, human. The conditions noted are these: in vitro. The source says: (§2) 4, 2003, Nov. 26, 2003, and Apr. 27, 2004, and assigned U.S. Patent Application Nos. 60/517,337 , 60/525,579, and 60/565,710, respectively, and International Patent Application No. PCT/US2004/037152, also entitled “Antagonist Anti-CD40 Monoclonal Antibodies and Methods for Their Use,” filed Nov. 4, 2004; the contents of each of which are herein incorporated by reference in their entirety.

Assay [3] deals with cancer cells from NHL and CLL patients. Description: In vitro CD40 ligand-mediated proliferation of patient cancer cells. Type of assay: cell-based, human.
Source text: as §2

For assay [4], the system named is B cells from normal human subjects. Description: In vitro proliferation of normal human B cells / lymphocytes. It is filed as cell-based.
Source text: as §1, §2

The target in assay [5] is soluble CD40 (Homo sapiens, UniProt P25942). Nature of the assay: ELISA-type assay, binding to soluble CD40. The note with it: ELISA-type assays.
soluble CD40, sequence (P25942 21-193 limits assumed): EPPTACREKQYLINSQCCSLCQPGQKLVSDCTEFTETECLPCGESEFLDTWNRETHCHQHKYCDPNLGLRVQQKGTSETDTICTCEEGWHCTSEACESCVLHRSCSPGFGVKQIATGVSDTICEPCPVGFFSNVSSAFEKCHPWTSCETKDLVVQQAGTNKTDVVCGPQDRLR
Source text: as §1

For assay [6], the target named is cell-surface CD40 (Homo sapiens, UniProt P25942). Nature of the assay: Flow cytometric (FACS) assay of CD40 binding and CD40-ligand blocking.
cell-surface CD40, sequence (P25942 21-277): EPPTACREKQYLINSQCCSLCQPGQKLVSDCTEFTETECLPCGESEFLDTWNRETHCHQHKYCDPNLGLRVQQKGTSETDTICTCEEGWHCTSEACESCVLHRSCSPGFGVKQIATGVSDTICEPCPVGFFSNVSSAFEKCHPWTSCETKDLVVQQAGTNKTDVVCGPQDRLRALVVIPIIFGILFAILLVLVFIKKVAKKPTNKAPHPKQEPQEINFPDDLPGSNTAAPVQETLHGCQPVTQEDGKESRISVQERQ
Source text: as §1

In assay [7] the test system is normal B cells. Description: CD40L-induced cytokine secretion, Meso Scale Discovery multi-array. Type of assay: cell-based, human. The note with it: normal B cells. As for the experimental part: (§3) Cells (1×10^5 cells per well) were cultured in a 96-well plate in the presence or absence of CD40L ([…], formaldehyde fixed CHO cells, 2×10^5 per well). […] Production of hIL-6, hIL-8, hIL-10, hTNF-α; hGM-CSF, hIL-1b, hIL-12p70, MCP-1, and MIP-1β beta was measured by Meso Scale Discovery® multi-array system (Meso Scale Discovery, Gaithersburg, Md.).

In assay [8] the test system is monocytes. Described as above. It is filed as cell-based, human. The conditions noted are these: monocytes, Donor 1, 24 hours. How it is done: as §3

Consider “CHIR-5.9: fully human anti-CD40 monoclonal antibody of the IgG1 isotype, hybridoma 131.2F8.5.9, ATCC PTA-5542, SEQ ID NO:6 and 7”, for which the “ADCC activity, killing of CD40-expressing target cells” value in assay [1] is listed as “have ADCC activity; also recorded: able to kill CD40-expressing target cells”. Also, the “killing of primary cancer cells by ADCC” value in assay [2] was “kill primary cancer cells from NHL patients by ADCC”. In addition, the “CD40 ligand-mediated proliferation of cancer cells” value in assay [3] is “inhibiting in vitro CD40 ligand-mediated proliferation of cancer cells from NHL and CLL patients”. The “effect on CD40 ligand-mediated proliferation of normal B cells” value in assay [4] (in vitro) is “act as antagonist anti-CD40 antibodies; also recorded: inhibit in vitro CD40 ligand-mediated proliferation of normal B cells”. In addition, the “induction of proliferation of human lymphocytes (agonist activity)” value in assay [4] (lymphocytes from normal subjects, antibody alone) is reported as “do not induce strong proliferation”. Also, the “binding to soluble CD40” value in assay [5] was “bind soluble CD40”. In addition, in assay [6] (FACS analysis), the “specific binding to human CD40” value was “bind specifically to human CD40”. Also, in assay [6] (flow cytometric assays), the “displacement of CD40-ligand pre-bound to cell surface CD40” value is listed as “displace the pre-bound CD40-ligand; also recorded: can compete off CD40-ligand pre-bound to cell surface CD40” and the “prevention of CD40-ligand binding to cell-surface CD40” value is on record as “prevent the binding of CD40-ligand to cell-surface CD40; also recorded: can prevent CD40-ligand binding”.

B1: CD40L: CD40 ligand used as stimulus, presented on transfected, formaldehyde fixed CHO cells (protein)
chain: MIETYNQTSPRSAATGLPISMKIFMYLLTVFLITQMIGSALFAVYLHRRLDKIEDERNLHEDFVFMKTIQRCNTGERSLSLLNCEEIKSQFEGFVKDIMLNKEETKKENSFEMQKGDQNPQIAAHVISEASSKTTSVLQWAEKGYYTMSNNLVTLENGKQLTVKRQGLYYIYAQVTFCSNREASSQAPFIASLCLKSPGRFERILLRAANTHSSAKPCGQQSIHLGGVFELQPGASVFVNVTDPSQVSHGTGFTSFGLLKL
modifications: expressed on fixed CHO cells
With B1, in assay [7] (Donor 1, 24 hours), the “CD40L-induced hGM-CSF secretion, folds of induction over background” value (“CD40L-induced hGM-CSF secretion, folds” below) is “no induction”; the “CD40L-induced hIL-1b secretion, folds of induction over background” value (“CD40L-induced hIL-1b secretion, folds” below) is on record as “no induction”; the “CD40L-induced hIL-12p70 secretion, folds of induction over background” value (shortened to “CD40L-induced hIL-12p70 secretion, folds”) is listed as “no induction”. Moreover, in assay [7] (Donor 2, 24 hours), the “CD40L-induced hIL-1b secretion, folds” value is reported as “no induction”. Moreover, in assay [7] (Donor 3, 24 hours), the “CD40L-induced hGM-CSF secretion, folds” value is on record as “no induction”; the “CD40L-induced hIL-1b secretion, folds” value is listed as “no induction”; the “CD40L-induced hIL-12p70 secretion, folds” value is given as “no induction”. For the same molecule, in assay [8], the “CD40L-induced hGM-CSF secretion, folds” value is “no induction”; the “CD40L-induced hIL1-b secretion, folds of induction over background” value is recorded as “no induction”; the “CD40L-induced hIL-12p70 secretion, folds” value was “no induction”.
